Tests used:
Test in all cases: ITC
[1] = target: T1, H3K14ac (1–19) peptide (Homo sapiens); conditions: domain or fragment; chains chain; modification not given; acetyl-Lys14 (mature histone numbering; entry K15); terminal caps or added residues not given
T1 chain: ARTKQTARKSTGGKAPRKQ

[2] = target: T2, H3K4ac (1–19) peptide (Homo sapiens); conditions: domain or fragment; chains chain; modification not given; acetyl-Lys4 (mature histone numbering; entry K5); terminal caps or added residues not given
T2 chain: ARTKQTARKSTGGKAPRKQ

[3] = target: Unmodified H3 (1–19) (Homo sapiens); conditions: domain or fragment; chains chain; modification not given

Kd [1]: > 1000 µM
Kd [2]: 320 µM
Kd [3]: > 1000 µM
B1: AF9-YEATS domain (residues 1–138) for X-ray analysis and ITC, P42568 1-138 (protein)
chain: MASSCAVQVKLELGHRAQVRKKPTVEGFTHDWMVFVRGPEHSNIQHFVEKVVFHLHESFPRPKRVCKDPPYKVEESGYAGFILPIEVYFKNKEEPRKVRFDYDLFLHLEGHPPVNHLRCEKLTFNNPTEDFRRKLLKA

— PMC9293779, “Elucidation of binding preferences of YEATS domains to site-specific acetylated nucleosome core particles” (The Journal of Biological Chemistry, 2022)
